Seven molecules from patent US20240150447A1 (CEPHALON, published 2024) can be followed below.

Changes are numbered by the printed parent chain. Names and notes keep the numbering of the source.

To fix the notation:
B1: hIgG1 M252Y/T256S/V308P/N434W, O4 VH with Ab6 light chain (antibody)
heavy: QVQLRQSGPGLVQPSQSLSITCTVSGFSLTSYGVHWFRQSPGKGLEWLGVIWSGGSTDYNAAFISRLSISKDNSKSQVFFKMNSLQANDTAIYYCARNRGRYNYYAMDYWGQGTSVTVSSASTKGPSVFPLAPSSKSTSGGTAALGCLVKDYFPEPVTVSWNSGALTSGVHTFPAVLQSSGLYSLSSVVTVPSSSLGTQTYICNVNHKPSNTKVDKKVEPKSCDKTHTCPPCPAPELLGGPSVFLFPPKPKDTLYISRSPEVTCVVVDVSHEDPEVKFNWYVDGVEVHNAKTKPREEQYNSTYRVVSVLTPLHQDWLNGKEYKCKVSNKALPAPIEKTISKAKGQPREPQVYTLPPSRDELTKNQVSLTCLVKGFYPSDIAVEWESNGQPENNYKTTPPVLDSDGSFFLYSKLTVDKSRWQQGNVFSCSVMHEALHWHYTQKSLSLSPG
light: not shown
notes: hIgG1
B2: hIgG1 M252Y/V308P/N434W, O4 VH with Ab6 light chain (antibody)
heavy: B1 heavy with S259T
light: not shown
notes: hIgG1
B3: hIgG1 P257A/V308P/M428L/N434Y, O4 VH with Ab6 light chain (antibody)
heavy: B1 heavy with Y255M, S259T, P260A, M431L, W437Y
light: not shown
notes: hIgG1
B4: hIgG1 M252Y/V308P/N434Y, O4 VH with Ab6 light chain (antibody)
heavy: B1 heavy with S259T, W437Y
light: not shown
notes: hIgG1
B5: hIgG1 M252Y/T256V/V308P/N434W, O4 VH with Ab6 light chain (antibody)
heavy: B1 heavy with S259V
light: not shown
notes: hIgG1
B6: hIgG1 M252Y/T256Y/V308P/N434W, O4 VH with Ab6 light chain (antibody)
heavy: B1 heavy with S259Y
light: not shown
notes: hIgG1
B7: hIgG1 M252Y/T256V/V308P/N434F, O4 VH with Ab6 light chain (antibody)
heavy: B1 heavy with S259V, W437F
light: not shown
notes: hIgG1

In one assay the target is T1, human FcRn protein (human, UniProt P55899 24-297, limits assumed).
T1 construct: source and construct not described; also called hFcRn; FCGRT
T1 sequence (P55899 24-297 limits assumed, chain 1 of 2): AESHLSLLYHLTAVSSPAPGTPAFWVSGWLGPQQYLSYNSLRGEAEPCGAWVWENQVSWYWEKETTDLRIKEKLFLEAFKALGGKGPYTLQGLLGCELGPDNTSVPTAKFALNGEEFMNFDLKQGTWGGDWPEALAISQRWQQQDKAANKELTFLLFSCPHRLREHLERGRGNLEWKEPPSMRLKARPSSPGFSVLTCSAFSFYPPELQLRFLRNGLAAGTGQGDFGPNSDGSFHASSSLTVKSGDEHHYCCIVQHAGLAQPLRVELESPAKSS
T1 sequence (chain, as listed by the source limits assumed, chain 2 of 2): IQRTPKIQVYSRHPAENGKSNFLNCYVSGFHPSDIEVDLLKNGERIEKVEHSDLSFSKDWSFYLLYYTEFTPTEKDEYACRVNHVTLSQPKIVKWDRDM
Description: SPR, Ab on Protein L chip, hFcRn in flow, pH 7.4. Here is the method: (§1) The interaction between human immunoglobulin proteins and FcRn is known to be affected by the pH of their environment solution. To test whether this pH-dependent interaction correlates with the quantity of antibody variants in the brain parenchyma after in vivo administration, the affinity of certain variants towards FcRn were screened at pH 6.0 and pH 7.4 on a Biacore T200 system (GE Healthcare). All experiments were conducted at 25′ C. Antibodies were expressed and purified using the Expi293 expression system as described in Example 1. Cells were transfected with a heavy chain comprising the variable region of the 04 antibody used in Example 2 [SEQ ID NO: 1] fused to a heavy chain region bearing the indicated substitution in Table 11 and a light chain from Ab6 [SEQ TD NO: 24]. Although the CH sequences listed in Table 11 include the terminal lysine (K447), this terminal lysine was truncated during the cloning process for each of these variants for the purposes of this experiment. Antibody proteins were captured at a flow rate of 10 μL/min on a Protein L chip to a surface density of approximately 100 RU. Experiments conducted at pH 7.4 were conducted in PBST (1.06 mMKH2PO4, 155.17 mM7NaCl, 2.97 mM 4Na2PO4-7H2O, and 0.005 Tween-20). […] The antibody-FcRn complex was allowed to dissociate for 20 s before the chip was regenerated with 10 mM glycine pH 1.7. On-rates (ka) and off-rates (kd) were estimated by the best fit to a one-to-one Langmuir binding model by simultaneous fitting of the association and dissociation sensograms. The dissociation constant (KD) for FcRn binding was then calculated as the ratio of the off rate to the on rate (kd/ka).
For orientation: SPR reads the build-up and loss of mass on a sensor chip optically.
As to B1, the Kd – broadly, a measure of binding affinity in units of concentration – came out at 84.5 nM; the koff (commonly the first-order rate constant of dissociation) is 0.0564 s⁻¹; the on-rate constant (kon) (in general, the rate constant with which the complex forms) came to 668000 M⁻¹ s⁻¹.
For B2, in that order: 730000 nM, 3.11 s⁻¹ and 4260 M⁻¹ s⁻¹.
For B3 the same measures were 239 nM, 0.0545 s⁻¹ and 228000 M⁻¹ s⁻¹.
B4: the affinity, expressed as Kd, was 10300 nM; the koff amounted to 0.748 s⁻¹; the kon was determined as 72600 M⁻¹ s⁻¹.
Turning to B5, the Kd turned out to be 68.7 nM, the koff came out at 0.0327 s⁻¹ and the kon was 476000 M⁻¹ s⁻¹.
On to B6, for which binding was characterised by a dissociation constant (Kd) of 202 nM, the koff came to 0.08 s⁻¹ and the kon came out at 395000 M⁻¹ s⁻¹.
For B7, in that order: 202 nM, 0.2 s⁻¹ and 977000 M⁻¹ s⁻¹.

For a further assay, the target named is T1, human FcRn protein. As to the kind of experiment: SPR, Ab on Protein L chip, hFcRn in flow, pH 6.0. Here is the method: as §1
Take B1: binding was characterised by a dissociation constant (Kd) of 1.23 nM, the koff amounted to 0.00186 s⁻¹ and the association rate constant (kon) came to 1.52e+06 M⁻¹ s⁻¹.
For B2, in that order: 0.767 nM, 0.00124 s⁻¹ and 1.62e+06 M⁻¹ s⁻¹.
As to B3, the Kd was 4.26 nM, the koff stood at 0.00706 s⁻¹ and the kon turned out to be 1.66e+06 M⁻¹ s⁻¹.
B4 came in with a Kd of 1.51 nM, a koff of 0.00242 s⁻¹ and a kon of 1.61e+06 M⁻¹ s⁻¹.
For B5 the same measures were 1.87 nM, 0.0024 s⁻¹ and 1.29e+06 M⁻¹ s⁻¹.
For B6 the same measures were 0.754 nM, 0.00112 s⁻¹ and 1.49e+06 M⁻¹ s⁻¹.
B7 yielded a Kd of 1.25 nM, a koff of 0.00139 s⁻¹ and a kon of 1.11e+06 M⁻¹ s⁻¹.
